The data set in a line: soluble on expression in E. coli; label from the status in PepcDB or PDB records.
Regarding “MSILEQVQPIETMLPERYYTMSTEDMEKRVREIKEKMGKMLFIPGHHYQKDEVVQFSDAVGDSLQLAQVAASNKDAKYIVFCGVHFMAETADMLTTDDQVVILPDMRAGCSMADMADIEQTERAWKELTKLFGDTMIPLTYVNSTAAIKAFCGRNGGATVTSSNAKQMVSWAFTQKERLVFLPDQHLGRNTAYDLGIPLDKMAVWDPHTDSLEYDGDIEEIQVILWKGHCSVHQNFTVKNIESVRKNHSDMNIIVHPECCYEVVAASDYAGSTKYIIDMIESAPPGSKWAIGTEMNLVNRIIQQHPDKEIVSLNPFMCPCLTMNRIDLPHLLWALETIERGEEINVISVDKQVTAEAVLALNRMLERV”, the “soluble on expression in E. coli” value is “not soluble”.
As to “GAMAQVPTDPGYFSVLLDVKHFSPEEISVKVVGDHVEVHARHEERPDEHGFIAREFHRRYRLPPGVDPAAVTSALSPEGVLSIQATPASAQASLPSPPAAK”, the “soluble on expression in E. coli” value is “soluble”.
With “MGSDKIHHHHHHMLVGREKELHLLHDIQNDDSSHFVAVYGRMREGKTFLIREAFGYRFTFQHAGLSEGGMKEQIYAFTSSLKDAGYEVKKQPQNWLEAFEALKDVIRLSSEKKKIIFIDELSWMDTQKSDLMVALENFWNGFASARKDIVLIVCASATSWMLSKVVHNKGGLYNRLTEQIHLRTFCLRECEAYVKAAGLALNRNQILQYYMIFGGVPYYWGFLKKGLSLSQNIDSILFEKDAPLRDEFKYLYASVFKKPENYVKIIEALGTKKVGMTREEIITSTKIPNSGDLTTKLEELESCGFIRKYNAFGMKKKNAIYQLMDCFTLFYFKFLKSEPTDEHFWTNQINTPAVNTWLGLAFERVCMEHVDQIKFKLGISGVLTEINSWYCKSDPDNGIFGSQIDMLIARKDQVINLCEMKYSQSEYTITEKVDRSIRNKISDLRVVSGTKYAIYPTLITTYGVVENSYSQELQSVVTMDDLFA”, the “soluble on expression in E. coli” value was “not soluble”.
As for “MMIMERHYTLKEASKILGVSIKTLQRWDKAGKIKCIRTLGGKRRVPESEIKRILGIKDKEQRKIIGYARVSFNAQKDDLERQIQLIKSYAEENGWDIQILKDIGSGLNEKRKNYKKLLKMVMNRKVEKVIIAYPDRLTRFGFETLKEFFKSYGTEIVIINKKHKTPQEELVEDLITIVSHFAGKLYGMHSHKYKKLTKTVKEIVREEDAKEKE”, the “soluble on expression in E. coli” value is given as “not soluble”.
With “MTASDYEWQPDILGKDFQQLVIPLGADPISEGGEDDIFATLVRYAPADQPTPTSRPAVLFVHGMTDYFFQRHVAQWFHQHGFSVYALDLRKCGRSHRNNQSWHYISDISRYFEELDRAKSIIEELHPTIFPIGHSTGGLILAHWLDGLRQCETLHPTIPGAILNSPWLDMMTPATVTRALRPILTRAARRFPHASFGRSKEGTYGRSLHASRSGEWDYDISFKPLTGHLRKLGWLHAIDTAQSLVHNDAVDCGIPLLMLCSDHSSLRGKFSPRAQVTDTVLDVEQMKRWAPHLSEYVSVCTIRGAVHDVYLSQKPARLQALETSVRWMNRILSEHTI”, the “soluble on expression in E. coli” value is on record as “not soluble”.
With “MDSQKLRTEGKKMLDFVADYWDGIRDRKPLPDVKPGYINDLVPAQAPATPEDWAKIFDDLENVVVNGATHWHHPHFFAYFPTALSYQSIMADILSGGIAGIGFTWKSCPSMTELEMSSLDWVVDLMGLPEHFKNSHNGPGCGIIQSTASDSTMIAIMAARATHVERIKSEPTFMKWVSETGVGKTLKNIFDRVKVNKVDDEASGMITPYFHDPTVFERFVMYCSDQAHSSVEKGAMLSAVRMRKLKATRGFLGNYGVSRETLQNAIKEDRARGYIPFMFLATVGTTCSCGVDQVDELGPVCVEEGLYLHVDAAYAGTFALCEEFKYLIRGMEHVDSFNFNLHKAGMVNFDCSPMWFKNGTHVSRYFNVDAVYLAHEYQTTASDYRHLQVALGRRFRSLKIWFVLRNMGVDKIREYLRRTELLAAEFSKLILENGKFEHFVPQHLGLTCFRLKNSTNADNEKLCNAINDDRRIHLVPSTVHGTYFLRMVVCSQLTTLDDIIYARDVIFELAEKLF”, the “soluble on expression in E. coli” value is listed as “not soluble”.
For “VLGVTPDTEVVKPTRTQAERTAAMRTKLLDAAVDSLVELGYARTTTQGIARRAGVSRGAQLHHFPTKESLVVAAVEHLVDKRMEEILAADVDAGRGVDVLADAFSGPLFYAALELWVAARTDPALYEATVPLERKVNDALRRGSAEVFGDRFDADTIELSIELVRGLAVSALFRTPEAEQSLRARLLPVWESKVEKS”, the “soluble on expression in E. coli” value was “not soluble”.
On to “MAHHHHHHMVTVPKLQAMREAGEKIAMLTSYDASFAALLDRANVDVQLIGDSLGNVLQGQATTLPVTLDDIAYHTACVARAQPRGLVVADLPFGTYGTPADAFASAVKLMRAGAQMVKLEGGEWLAETVRFLVERAVPVCAHVGLTPQSVHAFGGFKVQGKTEAGAAQLLRDARAVEEAGAQLIVLEAVPTLVAAEVTRELSIPTIGIGAGAECSGQVLVLHDMLGVFPGKRPRFVKDFMQGQPSIFAAVEAYVRAVKDGSFPGPEHSF”, for which the “soluble on expression in E. coli” value is on record as “soluble”.
Take “MGSDKIHHHHHHMIPDKSVEILLGELSRDIAQRTPGTGDFPTAVEGLELFRRNEPAPPVSCLVPPSIVLVADGAKIMWVGGEPYEYNAEKFLITSLDLPASSEILQASTSQPCVGVAYKLDQRVLMELIAQGSLPPVKKRDAGTSVGIGTITDALLEPFCRLLSLLDEPEAIPVLGPLIQREIHYRLLMSDQSDHLRQIAAVDGHGYRIGKAIDWLKTNIASPLRVEELASRVQMSTPSFHHHFRQLAGMSPLRYQKWLRLNEARRLMLNEHYDVTTAAYAVGYESLSHFSREYTRMFGESPKRDITELRKSAGKL”: the “soluble on expression in E. coli” value is “not soluble”.
As for “MENKMVEYRKKFGLSQEKLAEKLGVSRQTIISIEKGKYDPSLPLAFEIAKTFQTTIEHVFIYEGKEGEE”, the “soluble on expression in E. coli” value is “not soluble”.
Consider “MKILLIGASGTLGSAVKERLEKKAEVITAGRHSGDVTVDITNIDSIKKMYEQVGKVDAIVSATGSATFSPLTELTPEKNAVTISSKLGGQINLVLLGIDSLNDKGSFTLTTGIMMEDPIVQGASAAMANGAVTAFAKSAAIEMPRGIRINTVSPNVLEESW”, for which the “soluble on expression in E. coli” value was “not soluble”.
Turning to “MGSDKIHHHHHHMRGEVKKIIEAIGDIFIGHEDVIRKVLAVALVNGNILFEDYPGLGKTLLAKAFAKILGLKFKRIQFTPDLLPADIIGTKVWKPEKGAFEVVKGPIFTNILLADEINRAPPKTQSALLEAMEERQVTIEGETFKLERPFFIIATQNPLELEGTYPLPEAQLDRFLVRLNIGYPRNEEDELEILKARLRWGKDDPTSDISPIISREDFIRMQEEVERGVIIHDDILRYIVRLVRRIREDERIEAGPSPRGGLALMKLAKANAFIEGRSYVIPDDVKYFAVEALAHRIVLKPEYSLERGIAEEIIREVLEEVPVPKDIRY”, the “soluble on expression in E. coli” value was “not soluble”.
For “MSGPEELEAGASDSNAGGSSRQGQEQERVEPVLEGVPQPNDQESADEDLTARQPPIQPQVPNASDNLQVPPNLEYLIAVNPSQLITTIQIGAEVARLEELEDEYRQELELIRMTESLGEELLQKENELRSRAGYLGRLDVLENRRNYEDEAAENLAIRTVQNRVLLLRRARAELYERERIARKTFIWRLRRFKNPTDQSVNTWMETLNDRLNRVANSWERRREPHEQAIRDYERLVATRQRTEEDRRRERASNRAGPSNQEDYDSEDEDEHHVDELPDLLELLSLVVNPVIGGGGISTNRAEYLNPRGTEGLGADDPDLNDSGGTVYQSDEEESEDEAEIDHQEGPSNWRPKRPRRDDDEGGSGSSASMWNAPSTSSQALGRSC”, the “soluble on expression in E. coli” value is “not soluble”.
For “MEEDKNTLDLHTEAREEDRVAKAVALFKEGYNCSQSVVTAFADLYGFTREQALHMSASFGGGIGRMRETCGAACGMFLLAGLEKCAIEGKDRESKAANYALVQELAEEFKKRNGALRCADLLGLSGKEPVVSTPEARTERYYAKRPCARMVEEAARIWSEHLEKQKK”, the “soluble on expression in E. coli” value is given as “not soluble”.
As for “MLPKPGTYYLPWEVSAGQVPDGSTLRTFGRLCLYDMIQSRVTLMAQHGSDQHQVLVCTKLVEPFHAQVGSLYIVLGELQHQQDRGSVVKARVLTCVEGMNLPLLEQAIREQRLYKQERGGSQ”, the “soluble on expression in E. coli” value is “soluble”.
With “MPRINSPHITGNYPSTPFIFYIPTSGQRPMQWSAEKLPEGLELDSKTGIISGVMTSKGDYTVTLKAENALGVSVKQLVIRIGDELLLEHHHHHH”, the “soluble on expression in E. coli” value is on record as “not soluble”.

The values above are taken from the DeepSol protein solubility set.
